Target: collagen VI tetramers from bovine cornea (bovine)
Assay: ELISA; solid-phase binding: collagen VI tetramers coated (10 ug in 100 ul TBS, overnight 4 C), recombinant WARP dimer 0-1 uM in TBS, 1 h at room temperature, detected with sheep anti-WARP serum; Scatchard analysis, apparent Kd

Kd: 0.022 µM
B1: recombinant human WARP (von Willebrand factor A-domain related protein), dimer (natural protein)
chain: ERGPPASAPRGDLMFLLDSSASVSHYEFSRVREFVGQLVAPLPLGTGALRASLVHVGSRPYTEFPFGQHSSGEAAQDAVRASAQRMGDTHTGLALVYAKEQLFAEASGARPGVPKVLVWVTDGGSSDPVGPPMQELKDLGVTVFIVSTGRGNFLELSAAASAPAEKHLHFVDVDDLHIIVQELRGSILDAMRPQQLHATEITSSGFRLAWPPLLTADSGYYVLELVPSAQPGAARRQQLPGNATDWIWAGLDPDTDYDVALVPESNVRLLRPQILRVRTRPGEAGPGASGPESGAGPAPTQLAALPAPEEAGPERIVISHARPRSLRVSWAPALGSAAALGYHVQFGPLRGGEAQRVEVPAGRNCTTLQGLAPGTAYLVTVTAAFRSGRESALSAKACTPDGPRPRPRPVPRAPTPGTASREP
